Measurements published in patent US20150065381A1.
Values joined by “and” are separate entries in the source; they are usually repeats but may differ in a detail not shown here. Equal values may be shown once.

Experiments:
[1] = target: HIV-1 16055 envelope (HIV-1); assay: capture ELISA, plate 2, mAb 0.8 ug/ml
[2] = target: HIV-1 JRCSF envelope (HIV-1) (UniProt P20871); assay: capture ELISA, plate 2, mAb 0.8 ug/ml
[3] = target: HIV-1 JRFL envelope (HIV-1); assay: capture ELISA, plate 2, mAb 0.8 ug/ml
[4] = target: HIV-1 envelope clone BF-002.c05 (multiclade gp160 clone panel) (HIV-1); assay: capture ELISA, plate 2, mAb 0.8 ug/ml
[5] = target: HIV-1 envelope clone F1-002.c16 (multiclade gp160 clone panel) (HIV-1); assay: capture ELISA, plate 2, mAb 0.8 ug/ml
[6] = target: HIV-1 envelope clone G-011.c02 (multiclade gp160 clone panel) (HIV-1); assay: capture ELISA, plate 2, mAb 0.8 ug/ml
[7] = target: HIV-1 envelope clone G-011.c05 (multiclade gp160 clone panel) (HIV-1); assay: capture ELISA, plate 2, mAb 0.8 ug/ml
[8] = target: HIV-1 envelope of gp160 clone AG-010.c11 (HIV-1); assay: capture ELISA, plate 2, mAb 0.8 ug/ml
[9] = target: HIV-1 envelope of gp160 clone AG-010.c14 (HIV-1); assay: capture ELISA, plate 2, mAb 0.8 ug/ml
[10] = target: HIV-1 envelope of gp160 clone B-Acute-008.c11 (HIV-1); assay: capture ELISA, plate 2, mAb 0.8 ug/ml
[11] = target: HIV-1 envelope of gp160 clone B-Acute-009-c08 (HIV-1); assay: capture ELISA, plate 2, mAb 0.8 ug/ml
[12] = target: HIV-1 envelope of gp160 clone B-Acute-010.c08 (HIV-1); assay: capture ELISA, plate 2, mAb 0.8 ug/ml
[13] = target: HIV-1 envelope of gp160 clone B-Acute-010.c09 (HIV-1); assay: capture ELISA, plate 2, mAb 0.8 ug/ml
[14] = target: HIV-1 envelope of gp160 clone B-Chronic-014.c02 (HIV-1); assay: capture ELISA, plate 2, mAb 0.8 ug/ml
[15] = target: HIV-1 16055 envelope (HIV-1); assay: capture ELISA, plate 2, mAb 2.5 ug/ml
[16] = target: HIV-1 envelope clone BF-002.c05 (multiclade gp160 clone panel) (HIV-1); assay: capture ELISA, plate 2, mAb 2.5 ug/ml
[17] = target: HIV-1 envelope of gp160 clone AG-010.c11 (HIV-1); assay: capture ELISA, plate 2, mAb 2.5 ug/ml
[18] = target: HIV-1 envelope of gp160 clone B-Acute-008.c11 (HIV-1); assay: capture ELISA, plate 2, mAb 2.5 ug/ml
[19] = target: HIV-1 16055 envelope (HIV-1); assay: capture ELISA, plate 2, mAb 7.5 ug/ml
[20] = target: HIV-1 JRCSF envelope (HIV-1) (UniProt P20871); assay: capture ELISA, plate 2, mAb 7.5 ug/ml
[21] = target: HIV-1 JRFL envelope (HIV-1); assay: capture ELISA, plate 2, mAb 7.5 ug/ml
[22] = target: HIV-1 envelope clone BF-002.c05 (multiclade gp160 clone panel) (HIV-1); assay: capture ELISA, plate 2, mAb 7.5 ug/ml
[23] = target: HIV-1 envelope clone BF-002.c08 (multiclade gp160 clone panel) (HIV-1); assay: capture ELISA, plate 2, mAb 7.5 ug/ml
[24] = target: HIV-1 envelope clone F1-002.c11 (multiclade gp160 clone panel) (HIV-1); assay: capture ELISA, plate 2, mAb 7.5 ug/ml
[25] = target: HIV-1 envelope clone F1-002.c16 (multiclade gp160 clone panel) (HIV-1); assay: capture ELISA, plate 2, mAb 7.5 ug/ml
[26] = target: HIV-1 envelope clone G-011.c02 (multiclade gp160 clone panel) (HIV-1); assay: capture ELISA, plate 2, mAb 7.5 ug/ml
[27] = target: HIV-1 envelope clone G-011.c05 (multiclade gp160 clone panel) (HIV-1); assay: capture ELISA, plate 2, mAb 7.5 ug/ml
[28] = target: HIV-1 envelope of gp160 clone AG-010.c11 (HIV-1); assay: capture ELISA, plate 2, mAb 7.5 ug/ml
[29] = target: HIV-1 envelope of gp160 clone AG-010.c14 (HIV-1); assay: capture ELISA, plate 2, mAb 7.5 ug/ml
[30] = target: HIV-1 envelope of gp160 clone B-Acute-008.c11 (HIV-1); assay: capture ELISA, plate 2, mAb 7.5 ug/ml
[31] = target: HIV-1 envelope of gp160 clone B-Acute-009-c08 (HIV-1); assay: capture ELISA, plate 2, mAb 7.5 ug/ml
[32] = target: HIV-1 envelope of gp160 clone B-Acute-010.c08 (HIV-1); assay: capture ELISA, plate 2, mAb 7.5 ug/ml
[33] = target: HIV-1 envelope of gp160 clone B-Acute-010.c09 (HIV-1); assay: capture ELISA, plate 2, mAb 7.5 ug/ml
[34] = target: HIV-1 envelope of gp160 clone B-Chronic-014.c02 (HIV-1); assay: capture ELISA, plate 2, mAb 7.5 ug/ml
[35] = target: BG505 envelope (gp120 monomer released from lysed pseudovirus) (HIV-1); assay: antigen capture ELISA, mAb 0.3 ug/ml, plate 2
[36] = target: aMLV envelope (from lysed pseudovirus); assay: antigen capture ELISA, mAb 0.3 ug/ml, plate 2
[37] = target: BG505 envelope (gp120 monomer released from lysed pseudovirus) (HIV-1); assay: antigen capture ELISA, mAb 0.8 ug/ml, plate 2
[38] = target: aMLV envelope (from lysed pseudovirus); assay: antigen capture ELISA, mAb 0.8 ug/ml, plate 2

| Substance | ELISA OD [2] | ELISA OD [6] [OD] | ELISA OD [7] [OD] | ELISA OD [8] [OD] | ELISA OD [9] [OD] | ELISA OD [10] [OD] | ELISA OD [11] [OD] | ELISA OD [12] [OD] | ELISA OD [13] [OD] | ELISA OD [14] [OD] | ELISA OD [17] [OD] | ELISA OD [18] [OD] | ELISA OD [20] | ELISA OD [26] [OD] | ELISA OD [27] [OD] | ELISA OD [28] [OD] | ELISA OD [29] [OD] | ELISA OD [30] [OD] | ELISA OD [31] [OD] | ELISA OD [32] [OD] | other results |
| --- | --- | --- | --- | --- | --- | --- | --- | --- | --- | --- | --- | --- | --- | --- | --- | --- | --- | --- | --- | --- | --- |
| PGT145 (antibody) | 0.087 OD and 0.063 OD | 0.071 | 0.096 | 0.074 | 0.074 | 0.095 | 0.178 | 0.125 | 0.065 | 0.059 | 0.08 | 0.103 | 0.111 OD and 0.089 OD | 0.112 | 0.138 | 0.146 | 0.094 | 0.148 | 0.15 | 0.276 | ELISA OD [1]: 0.067 OD and 0.064 OD; ELISA OD [3]: 0.062 OD and 0.054 OD; ELISA OD [4]: 0.192 OD; ELISA OD [5]: 0.375 OD; ELISA OD [15]: 0.079 OD and 0.067 OD; ELISA OD [16]: 0.297 OD; ELISA OD [19]: 0.117 OD and 0.09 OD; ELISA OD [21]: 0.093 OD and 0.082 OD; ELISA OD [22]: 0.649 OD; ELISA OD [23]: 0.074 OD; ELISA OD [24]: 0.099 OD; ELISA OD [25]: 0.518 OD; ELISA OD [33]: 0.11 OD; ELISA OD [34]: 0.092 OD; ELISA OD [35]: 0.066 OD; ELISA OD [36]: 0.065 OD and 0.157 OD; ELISA OD [37]: 0.066 OD; ELISA OD [38]: 0.062 OD |
| PG9 (antibody) | 0.146 OD and 0.147 OD | 0.052 | 0.116 | 0.411 | 0.528 | 0.11 | 0.062 | 0.125 | 0.067 | 0.768 | 0.597 | 0.168 | 0.211 OD and 0.205 OD | 0.099 | 0.235 | 0.65 | 0.852 | 0.204 | 0.114 | 0.33 | ELISA OD [1]: 0.169 OD and 0.18 OD; ELISA OD [3]: 0.06 OD and 0.05 OD; ELISA OD [15]: 0.225 OD and 0.219 OD; ELISA OD [19]: 0.263 OD and 0.251 OD; ELISA OD [21]: 0.07 OD and 0.054 OD; ELISA OD [33]: 0.151 OD; ELISA OD [34]: 1.48 OD; ELISA OD [35]: 0.162 OD; ELISA OD [36]: 0.057 OD and 0.063 OD; ELISA OD [37]: 0.261 OD; ELISA OD [38]: 0.056 OD and 0.051 OD |
| PGV04 (antibody) | 1.03 OD and 1.35 OD | 0.326 | 0.168 | 0.103 | 0.169 | 0.094 | 0.095 | 0.659 | 0.913 | 3.37 | 0.151 | 0.078 | 2.78 OD and 2.65 OD | 1.25 | 0.719 | 0.22 | 1.68 | 0.109 | 0.459 | 3.25 | ELISA OD [4]: 2.07 OD; ELISA OD [5]: 0.139 OD; ELISA OD [16]: 4 OD; ELISA OD [22]: 4 OD; ELISA OD [23]: 3.2 OD; ELISA OD [24]: 0.506 OD; ELISA OD [25]: 0.626 OD; ELISA OD [33]: 3.44 OD; ELISA OD [34]: 4 OD; ELISA OD [35]: 0.45 OD; ELISA OD [36]: 0.095 OD and 0.115 OD; ELISA OD [37]: 0.745 OD; ELISA OD [38]: 0.085 OD |
| PG16 (antibody) | 0.135 OD and 0.136 OD | 0.062 | 0.097 | 0.173 | 0.51 | 0.146 | 0.058 | 0.132 | 0.105 | 0.318 | 0.272 | 0.267 | 0.226 OD and 0.245 OD | 0.097 | 0.153 | 0.302 | 0.8 | 0.215 | 0.092 | 0.301 | ELISA OD [4]: 0.586 OD; ELISA OD [5]: 0.302 OD; ELISA OD [16]: 0.927 OD; ELISA OD [22]: 0.764 OD; ELISA OD [23]: 0.164 OD; ELISA OD [24]: 0.154 OD; ELISA OD [25]: 0.217 OD; ELISA OD [33]: 0.244 OD; ELISA OD [34]: 0.513 OD; ELISA OD [35]: 0.067 OD; ELISA OD [36]: 0.096 OD and 0.103 OD; ELISA OD [37]: 0.165 OD; ELISA OD [38]: 0.072 OD and 0.064 OD |
